The record followed here is publication PMC11635287, “Molecular interactions of the chaperone CcmS and carboxysome shell protein CcmK1 that mediate β-carboxysome assembly” (Plant Physiology, 2024).

B2: CcmK1-His (His-tagged CcmK1 from Nostoc sp. PCC 7120) (natural protein, UniProt A0ACD6B949 1-114, looked up)
chain: MSIAVGMVETLGFPAVVEAADAMVKAARVTLVGYEKIGSGRVTVIVRGDVSEVQASVAAGVESVKRVNGGQVLSTHIIARPHENLEYVLPIRYTEDVEQFRENVNAIRPFGRRP
notes: CcmK1, carboxysome shell protein, Nostoc sp; GenBank BAB72824.1; synthesized gene in pET-22b(+); The His tag is named for the pull-down only; also called CcmK1 hexamer; source: E. coli BL21(DE3), purified (Ni2+-NTA, gel filtration)

The target in series [1] is CcmS-His (His-tagged CcmS from Nostoc sp. PCC 7120) (Nostoc sp. PCC 7120). Nature of the series: MST; His-tagged CcmS labelled with dye as target at 0.25 μM; non-labelled ligand in 2-fold steps, 16 capillaries; Monolith NT.115, 25 °C, 60% excitation power.
Series [2] concerns the target CcmK1-ΔC12, His-tagged (C-terminus-truncated CcmK1 from Nostoc sp. PCC 7120) (Nostoc sp. PCC 7120). Put plainly: SEC; gel filtration chromatography of CcmK1 or CcmK1-ΔC12 alone (Supplementary Figs. S4 and S5).
In series [3] the target is T1, CcmS-His (His-tagged CcmS from Nostoc sp. PCC 7120) (Nostoc sp. PCC 7120, UniProt A0ACD6B954 1-142, dye label on the His tag in the MST assays).
T1 chain: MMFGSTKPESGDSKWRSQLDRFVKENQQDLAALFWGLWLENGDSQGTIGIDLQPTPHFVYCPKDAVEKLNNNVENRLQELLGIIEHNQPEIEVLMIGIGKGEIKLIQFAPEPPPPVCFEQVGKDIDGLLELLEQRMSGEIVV
Nature of the series: MST.

Series [4] deals with the molecule itself. Put plainly: SEC; gel filtration chromatography of CcmK1 or CcmK1-ΔC12 alone (Supplementary Figs. S4 and S5). On the technique in general: SEC sorts molecules by how far they enter the pores of the column.
The target in series [5] is T2, CcmS-His (His-tagged CcmS from Nostoc sp. PCC 7120) (Nostoc sp. PCC 7120, UniProt A0ACD6B954 1-142, dye label on the His tag in the MST assays).
T2 construct: CcmS, Nostoc sp; ccmS encodes a protein of 142 amino acids; GenBank BAB73249.1; synthesized gene in pET-22b(+); also called CcmS dimer; source: E. coli BL21(DE3), purified (Ni2+-NTA, gel filtration)
Put plainly: MST; His-tagged CcmS labelled with dye as target at 0.25 μM; non-labelled ligand in 2-fold steps, 16 capillaries; Monolith NT.115, 25 °C, 60% excitation power. To be noted: both partners purified.

The target in series [6] is B2. Put plainly: SEC + native gel or EMSA; molecular mass of the CcmS/CcmK1 complex by gel filtration chromatography and Native-PAGE (Supplementary Figs. S3B and S5A). To be noted: both partners purified. In general terms: A gel shift assay detects complexes by their altered migration in electrophoresis.
Series [7] concerns the molecule itself. Put plainly: crystal structure; CcmS mixed with CcmK1-C15 at a molar ratio of 1:10, space group P41212, 1.67 Å; 0.2 M lithium sulfate, 0.1 M Tris pH 8.5, 1.26 M ammonium sulfate, 18 °C.

With “CcmK1-C12 (12-amino acid C-terminal peptide of CcmK1)”, in series [1], the Kd was 41.5 µM.

As to “CcmK1-ΔC12, His-tagged (C-terminus-truncated CcmK1 from Nostoc sp. PCC 7120) (domain or fragment)”, the stoichiometry N in series [2] came out at 6.

B1: CcmK1-C15 R112A peptide (peptide)
chain: FRENVNAIRPFGARP
In the case of B1, binding in series [3] was put at a Kd of 101 µM.

In the case of B2, the “stoichiometry N” value in series [4] was determined as 6. The same molecule had a Kd in series [5] of 34.5 µM.

B3: CcmS from Nostoc sp. PCC 7120 (as used for crystallization, Native-PAGE and gel filtration; tag not told) (natural protein, UniProt A0ACD6B954 1-142, looked up)
chain: MMFGSTKPESGDSKWRSQLDRFVKENQQDLAALFWGLWLENGDSQGTIGIDLQPTPHFVYCPKDAVEKLNNNVENRLQELLGIIEHNQPEIEVLMIGIGKGEIKLIQFAPEPPPPVCFEQVGKDIDGLLELLEQRMSGEIVV
notes: CcmS, Nostoc sp; ccmS encodes a protein of 142 amino acids; GenBank BAB73249.1; crystal structures PDB 8ZLH (alone) and 8ZLZ (with CcmK1-C15); also called CcmS dimer; purified CcmS; source: E. coli BL21(DE3), purified (Ni2+-NTA or Strep-tag XT, gel filtration)
B3: the “stoichiometry N” value in series [6] was 2 CcmS dimers per CcmK1 hexamer; in series [7], 2.

By Kd is commonly meant the concentration at which binding is half-saturated. The term stoichiometry N denotes the number of molecules, sites or subunits per partner or assembly.
